Laboratory results from publication PMC5018216 (Nature structural & molecular biology, 2016).
Where “and” joins values, the source holds several entries; their conditions need not be identical. Equal entries are not always repeated.

T1: OmpF (UniProt P02931 23-362)
T1 sequence (looked up): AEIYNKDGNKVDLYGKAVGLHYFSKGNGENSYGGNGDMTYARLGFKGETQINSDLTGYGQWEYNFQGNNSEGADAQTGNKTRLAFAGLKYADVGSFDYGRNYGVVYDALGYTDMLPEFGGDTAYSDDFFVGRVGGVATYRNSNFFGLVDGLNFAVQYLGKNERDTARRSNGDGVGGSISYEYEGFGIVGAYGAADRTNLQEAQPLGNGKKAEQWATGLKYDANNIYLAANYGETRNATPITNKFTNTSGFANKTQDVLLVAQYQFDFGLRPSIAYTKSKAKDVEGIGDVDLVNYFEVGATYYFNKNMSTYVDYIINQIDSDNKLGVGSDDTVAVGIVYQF

T2: tOmpA, the 8-stranded transmembrane domain of OmpA (UniProt P0A910 22-197)
T2 sequence: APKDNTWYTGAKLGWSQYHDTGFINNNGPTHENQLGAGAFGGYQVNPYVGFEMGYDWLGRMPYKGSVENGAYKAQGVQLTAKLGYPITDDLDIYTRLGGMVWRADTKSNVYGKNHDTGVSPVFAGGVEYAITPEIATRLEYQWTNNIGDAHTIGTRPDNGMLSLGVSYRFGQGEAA

T3: OmpT (E. coli, UniProt P09169 21-317)
T3 sequence (looked up): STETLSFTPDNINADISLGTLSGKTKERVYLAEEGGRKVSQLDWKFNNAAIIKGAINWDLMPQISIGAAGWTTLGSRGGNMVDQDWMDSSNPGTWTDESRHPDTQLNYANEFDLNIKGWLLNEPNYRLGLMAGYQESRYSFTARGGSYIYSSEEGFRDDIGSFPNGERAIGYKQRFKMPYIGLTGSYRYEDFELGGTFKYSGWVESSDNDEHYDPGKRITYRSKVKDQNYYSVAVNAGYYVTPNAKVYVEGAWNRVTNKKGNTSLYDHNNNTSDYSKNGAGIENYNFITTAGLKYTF

T4: PagP (UniProt P37001 26-186)
T4 sequence (looked up): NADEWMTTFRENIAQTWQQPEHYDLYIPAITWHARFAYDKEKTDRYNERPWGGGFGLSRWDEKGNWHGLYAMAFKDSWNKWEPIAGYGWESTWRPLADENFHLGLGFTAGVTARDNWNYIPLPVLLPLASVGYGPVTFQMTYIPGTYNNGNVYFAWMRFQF

T5: full-length OmpA (UniProt P0A910 22-346)
T5 sequence (looked up): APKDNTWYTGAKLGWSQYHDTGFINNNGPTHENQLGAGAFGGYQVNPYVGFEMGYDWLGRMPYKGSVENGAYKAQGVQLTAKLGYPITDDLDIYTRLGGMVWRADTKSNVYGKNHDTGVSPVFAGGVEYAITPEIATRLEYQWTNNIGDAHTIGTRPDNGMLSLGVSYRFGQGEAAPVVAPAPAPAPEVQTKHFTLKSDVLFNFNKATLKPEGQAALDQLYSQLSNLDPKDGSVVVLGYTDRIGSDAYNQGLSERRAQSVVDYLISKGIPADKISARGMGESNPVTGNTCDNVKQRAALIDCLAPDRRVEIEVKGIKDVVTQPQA


Columns and labels:
OmpF = biological target: T1, OmpF; experiment: native MS
[1] = biological target: T2, tOmpA, the 8-stranded transmembrane …; experiment: native MS
native MS = biological target: the molecule itself; experiment: native MS
[2] = biological target: tBamA, the 16-stranded transmembrane domain of the BamA OMP insertase (UniProt P0A940 425-810); experiment: native MS
OmpT = biological target: T3, OmpT; experiment: native MS
PagP = biological target: T4, PagP; experiment: native MS
full-length BamA = full-length BamA (UniProt P0A940 21-810); experiment: cross-linking
full-length OmpA = biological target: T5, full-length OmpA; experiment: cross-linking

Binder	stoichiometry N (OmpF)	stoichiometry N [1]	binding result (native MS)	stoichiometry N [2]	stoichiometry N (OmpT)	stoichiometry N (PagP)	stoichiometry N (full-length BamA)	stoichiometry N (full-length OmpA)
Skp (natural protein, Escherichia coli, UniProt P0AEU7 21-161, looked up) ADKIAIVNMGSLFQQVAQKTGVSNTLENEFKGRASELQRMETDLQAKMKKLQSMKAGSDRTKLEKDVMAQRQTFAQKAQAFEQDRARRSNEERGKLVTRIQTAVKSVANSQDIDLVVDANAVAYNSSDVKDITADVLKQVK	1 Skp (trimer) per OMP and ≤ 2 Skp (trimer) per OMP	1 Skp (trimer) per OMP	binds	1 Skp (trimer) per OMP and ≤ 2 Skp (trimer) per OMP	≤ 2 Skp (trimer) per OMP and 1 Skp (trimer) per OMP	1 Skp (trimer) per OMP		
His-tagged Skp (natural protein, Escherichia coli) ADKIAIVNMGSLFQQVAQKTGVSNTLENEFKGRASELQRMETDLQAKMKKLQSMKAGSDRTKLEKDVMAQRQTFAQKAQAFEQDRARRSNEERGKLVTRIQTAVKSVANSQDIDLVVDANAVAYNSSDVKDITADVLKQVK							2 Skp (trimer) per OMP	1 Skp (trimer) per OMP
